Measurements: patent publication US20210388087A1 (Chugai, published 2021)
Where a chain is given by its changes, count along the chain named. Names and notes keep the numbering of the source.

B1: H183/L072 VL F55T (antibody, name in Kabat numbering, V domains shown)
VH: QVQLVESGGGLVQPGRSLRLSCAASGFTFSNAWMHWVRQAPGKGLEWVAQIKDKGNAYAAYYAPSVKGRFTISRDDSKNSIYLQMNSLKTEDTAVYYCHYVHYASASTVLPAFGVDAWGQGTTVTVSS
VL: DIVMTQSPLSLPVTPGEPASISCQASQELVHMNRNTYLHWYQQKPGQAPRLLIYKVSNRTPGVPDRFSGSGSGTDFTLKISRVEAEDVGVYYCAQGTSVPFTFGQGTKLEIK
B2: H183/L072 VL F55V (antibody, name in Kabat numbering, V domains shown)
VH: B1 VH
VL: B1 VL with T60V
B3: H183/L072 VL F55W (antibody, name in Kabat numbering, V domains shown)
VH: B1 VH
VL: B1 VL with T60W
B4: H183/L072 VL F96D (antibody, name in Kabat numbering, V domains shown)
VH: B1 VH
VL: B1 VL with T60F, F101D
B5: H183/L072 VL F96E (antibody, name in Kabat numbering, V domains shown)
VH: B1 VH
VL: B1 VL with T60F, F101E
B6: H183/L072 VL F96H (antibody, name in Kabat numbering, V domains shown)
VH: B1 VH
VL: B1 VL with T60F, F101H
B7: H183/L072 VL F96K (antibody, name in Kabat numbering, V domains shown)
VH: B1 VH
VL: B1 VL with T60F, F101K
B8: H183/L072 VL F96Q (antibody, name in Kabat numbering, V domains shown)
VH: B1 VH
VL: B1 VL with T60F, F101Q
B9: H183/L072 VL F96S (antibody, name in Kabat numbering, V domains shown)
VH: B1 VH
VL: B1 VL with T60F, F101S
B10: H183/L072 VL F96T (antibody, name in Kabat numbering, V domains shown)
VH: B1 VH
VL: B1 VL with T60F, F101T
B11: H183/L072 VL G91D (antibody, name in Kabat numbering, V domains shown)
VH: B1 VH
VL: B1 VL with T60F, G96D
B12: H183/L072 VL G91E (antibody, name in Kabat numbering, V domains shown)
VH: B1 VH
VL: B1 VL with T60F, G96E
B13: H183/L072 VL G91H (antibody, name in Kabat numbering, V domains shown)
VH: B1 VH
VL: B1 VL with T60F, G96H
B14: H183/L072 VL G91K (antibody, name in Kabat numbering, V domains shown)
VH: B1 VH
VL: B1 VL with T60F, G96K
B15: H183/L072 VL G91Q (antibody, name in Kabat numbering, V domains shown)
VH: B1 VH
VL: B1 VL with T60F, G96Q
B16: H183/L072 VL G91S (antibody, name in Kabat numbering, V domains shown)
VH: B1 VH
VL: B1 VL with T60F, G96S
B17: H183/L072 VL G91T (antibody, name in Kabat numbering, V domains shown)
VH: B1 VH
VL: B1 VL with T60F, G96T
B18: H183/L072 VL H27dD (antibody, name in Kabat numbering, V domains shown)
VH: B1 VH
VL: B1 VL with H31D, T60F
B19: H183/L072 VL H27dE (antibody, name in Kabat numbering, V domains shown)
VH: B1 VH
VL: B1 VL with H31E, T60F
B20: H183/L072 VL H27dF (antibody, name in Kabat numbering, V domains shown)
VH: B1 VH
VL: B1 VL with H31F, T60F
B21: H183/L072 VL H27dG (antibody, name in Kabat numbering, V domains shown)
VH: B1 VH
VL: B1 VL with H31G, T60F
B22: H183/L072 VL H27dK (antibody, name in Kabat numbering, V domains shown)
VH: B1 VH
VL: B1 VL with H31K, T60F
B23: H183/L072 VL H27dN (antibody, name in Kabat numbering, V domains shown)
VH: B1 VH
VL: B1 VL with H31N, T60F
B24: H183/L072 VL H27dQ (antibody, name in Kabat numbering, V domains shown)
VH: B1 VH
VL: B1 VL with H31Q, T60F
B25: H183/L072 VL H27dS (antibody, name in Kabat numbering, V domains shown)
VH: B1 VH
VL: B1 VL with H31S, T60F
B26: H183/L072 VL H27dT (antibody, name in Kabat numbering, V domains shown)
VH: B1 VH
VL: B1 VL with H31T, T60F
B27: H183/L072 VL H34A (antibody, name in Kabat numbering, V domains shown)
VH: B1 VH
VL: B1 VL with H39A, T60F
B28: H183/L072 VL H34D (antibody, name in Kabat numbering, V domains shown)
VH: B1 VH
VL: B1 VL with H39D, T60F
B29: H183/L072 VL H34E (antibody, name in Kabat numbering, V domains shown)
VH: B1 VH
VL: B1 VL with H39E, T60F
B30: H183/L072 VL H34G (antibody, name in Kabat numbering, V domains shown)
VH: B1 VH
VL: B1 VL with H39G, T60F
B31: H183/L072 VL H34K (antibody, name in Kabat numbering, V domains shown)
VH: B1 VH
VL: B1 VL with H39K, T60F
B32: H183/L072 VL H34L (antibody, name in Kabat numbering, V domains shown)
VH: B1 VH
VL: B1 VL with H39L, T60F
B33: H183/L072 VL H34N (antibody, name in Kabat numbering, V domains shown)
VH: B1 VH
VL: B1 VL with H39N, T60F
B34: H183/L072 VL H34Q (antibody, name in Kabat numbering, V domains shown)
VH: B1 VH
VL: B1 VL with H39Q, T60F
B35: H183/L072 VL H34S (antibody, name in Kabat numbering, V domains shown)
VH: B1 VH
VL: B1 VL with H39S, T60F
B36: H183/L072 VL H34T (antibody, name in Kabat numbering, V domains shown)
VH: B1 VH
VL: B1 VL with H39T, T60F
B37: H183/L072 VL K50D (antibody, name in Kabat numbering, V domains shown)
VH: B1 VH
VL: B1 VL with K55D, T60F
B38: H183/L072 VL K50E (antibody, name in Kabat numbering, V domains shown)
VH: B1 VH
VL: B1 VL with K55E, T60F
B39: H183/L072 VL K50H (antibody, name in Kabat numbering, V domains shown)
VH: B1 VH
VL: B1 VL with K55H, T60F
B40: H183/L072 VL K50R (antibody, name in Kabat numbering, V domains shown)
VH: B1 VH
VL: B1 VL with K55R, T60F
B41: H183/L072 VL K50S (antibody, name in Kabat numbering, V domains shown)
VH: B1 VH
VL: B1 VL with K55S, T60F
B42: H183/L072 VL K50T (antibody, name in Kabat numbering, V domains shown)
VH: B1 VH
VL: B1 VL with K55T, T60F
B43: H183/L072 VL L27bA (antibody, name in Kabat numbering, V domains shown)
VH: B1 VH
VL: B1 VL with L29A, T60F
B44: H183/L072 VL L27bD (antibody, name in Kabat numbering, V domains shown)
VH: B1 VH
VL: B1 VL with L29D, T60F
B45: H183/L072 VL L27bE (antibody, name in Kabat numbering, V domains shown)
VH: B1 VH
VL: B1 VL with L29E, T60F

Target: T1, Human CD3eg linker (human)
T1 construct: Single-chain construct; also called recombinant human CD3
T1 chain: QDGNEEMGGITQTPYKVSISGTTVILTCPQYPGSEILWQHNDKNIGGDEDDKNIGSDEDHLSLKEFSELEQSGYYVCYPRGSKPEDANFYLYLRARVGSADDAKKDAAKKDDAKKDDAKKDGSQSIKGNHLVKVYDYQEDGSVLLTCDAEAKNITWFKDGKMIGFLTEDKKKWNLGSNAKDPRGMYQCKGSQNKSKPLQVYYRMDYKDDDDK
Test: SPR; fold vs parent H183/L072

Binder	fold change of affinity
B1	4.2 fold
B2	4.4 fold
B3	0.2 fold
B4	0 fold
B5	0 fold
B6	0 fold
B7	0 fold
B8	0 fold
B9	0 fold
B10	0 fold
B11	0 fold
B12	0 fold
B13	0 fold
B14	0 fold
B15	0 fold
B16	0 fold
B17	0 fold
B18	0 fold
B19	0 fold
B20	0.2 fold
B21	0 fold
B22	0 fold
B23	0 fold

Binder	fold change of affinity
B24	0 fold
B25	0 fold
B26	0 fold
B27	0.6 fold
B28	0 fold
B29	0 fold
B30	0.3 fold
B31	0.4 fold
B32	0 fold
B33	0.2 fold
B34	0 fold
B35	0.5 fold
B36	0.4 fold
B37	0 fold
B38	0 fold
B39	0 fold
B40	0 fold
B41	0 fold
B42	0 fold
B43	0.7 fold
B44	0 fold
B45	0 fold
